B1: hRSV90 (human mAb, IgG) (antibody, V domains shown)
VH: EVQLVESGGGLVQPRRSLRLSCAASGFTFDDYTIHWVRQAPGKGLEWVSGITWNSGYIGYADSVKGRFTISRDNARNSLYLQMNSLRAEDTALYYCVRDAYVSGSDYYYYGLDVWGRGTLVTVSS
VL: EIVMTSSPATLSVSPGERVTLFCRASQSVISNLAWYQQKSGQAPRLLIYGASTRATGIPSRFSGSGSGTEFTLTISSLQSEDFAVYFCQQYNNWPLTFGGGTQVNVQ
notes: IgG1, kappa; also called mAb hRSV90
B2: hRSV61 (antibody, V domains shown)
VH: QVQLVQSGAELKKPGASVKVSCKASGYTFTNHGITWVRQAPGQGLEWMSWISGYNGNTQYAQKFQGRVTMTTDTSTRTAYMELRSLTSDDTAVYYCARDNGVVVGPPDYWGQGTLVTVSS
VL: DIQMTQSPSTLSASVGDRVTISCRASQSISSWLAWYQQKPGKPPKLLIYKASGLQTGVPSRFSGSGSGTEFTLTISSLQPDDFATYYCQYYHSLSAFGQGTKVEIK
notes: also called mAb hRSV61
B3: hRSV20 (antibody, V domains shown)
VH: QVQLVESGGGLVQPGRSLRLSCAASGFTFDDYAMHWVRQAPGRGLEWVSGISWNSGIAVYADSVKGRFTISRDNAKKSLYLQINSLRAEDTALYYCVKDNYASGSYSSYYYYYGLDLWGQGTLVTVSS
VL: EIVMTQSPATLSVSPGERATLSCRASQSIISNLAWYQQKPGQAPRLLIYGVSTRATGIPARFSGSGSDTEFTLSISSLQSEDFAVYYCQQYNNWPITFGQGTRLEIK
notes: also called mAb hRSV20
B4: hRSV97 (antibody, V domains shown)
VH: EVQLVESGGTLVQPGRSLRLSCAASGFNFEEYAMHWVRQVPGKGLEWVARINWNGGIIGYADSVKGRFTISRDNAKKSLYLQMNSLRTDDSALYYCGKDVFWAVAGTGGPIDSWGQGTLVTVSS
VL: DIVMTQSPSSLSASIGDRVTISCRASRDISNYLAWYQQKSGKVPKLLIYAASTLESGVPSRFSGSGSGTDFTLTISSLQPEDVATYYCQNYNSAQMCSFGQGPSLEIK
notes: also called mAb hRSV97
B5: hRSV139 (antibody, V domains shown)
VH: QVQLVQSGAEVKKPGASVKVSCKASGYVFSNYGISWVRQAPGQGLEWMGWISAYNGNTEFAQKFQGRITMTTDTSTNTAYLEVRGLRSDDTAVYYCSRQSGVSGVPEFQDWGQGTLVTVSS
VL: QAVVTQSPLSLPVTLGQPASISCRSSQSLVYSNGDTYLSWFQQRPGQSPRRLIYKVSNRDSGVPDRFSASGSGTDFTLKISRVEAEDVGVYYCMQGTHWPPPTFGQGTRLEIK
notes: also called mAb hRSV139
B6: hRSV12 (antibody, V domains shown)
VH: QVQLVQSGAEVKKPGTSVRVSCKTSGYNFMNYGIYWVRQAPGQGLEWVGWISAYNGQTDRAQKFQGRVTMTTDISTNTGYMDLRSLRSDDTAVYFCARGPPVIAAVSLEYWGRGTLVTVSS
VL: EVVMTQSPLSLPVTLGQPASISCKSSQSLVHSNGDTYLNWFQQRPGQSPRRLIYKVSNRDSGVPDRFSGSGSGTDFTLKISRVETEDVGVYYCMQATHWPGSFGQGTKLEIK

Target: T1, RSV strain A2 post-fusion F (Human respiratory syncytial virus …, UniProt P03420, strain)
T1 construct: source: HEK293, transfected, purified from culture supernatant (HiTrap Talon crude)
Test: ELISA
Settings: both partners purified

Binder | binding result
B1 | no binding (tested: 1 μg ml^−1)
B2 | no binding (tested: 1 μg ml^−1)
B3 | no binding (tested: 1 μg ml^−1)
B4 | no binding (tested: 1 μg ml^−1)
B5 | no binding (tested: 1 μg ml^−1)

Target: T2, RSV strain 18537 post-fusion F (Human respiratory syncytial virus …, UniProt P13843, strain)
T2 construct: also called RSV B 18537 (post); source: HEK293, transfected, purified from culture supernatant (HiTrap Talon crude)
Test: ELISA
Settings: both partners purified

Binder | binding result
B1 | no binding (tested: 1 μg ml^−1)
B2 | no binding (tested: 1 μg ml^−1)
B3 | no binding (tested: 1 μg ml^−1)
B4 | no binding (tested: 1 μg ml^−1)
B5 | no binding (tested: 1 μg ml^−1)

Target: RSV strain 18537 B pre-fusion F (Ds-Cav1) (Human respiratory syncytial virus …, UniProt P13843, stabilised)
Test: cell-based or functional assay
Settings: not given

Binder | plaque-reduction neutralization of RSV 18537 B (IC50) [µg/mL]
B6 | 0.126

Target: RSV strain A2 pre-fusion F, single-chain triple mutant (SC-TM) construct (respiratory syncytial virus subgroup A …)
Test: cell-based or functional assay
Settings: not given

Binder | plaque-reduction neutralization of RSV A2 (IC50) [µg/mL]
B1 | 0.004
B2 | 0.09
B3 | 0.045
B6 | 0.176
B4 | 0.35
B5 | 0.323
